According to US20250382580A1, “COMPOSITIONS AND METHODS FOR ACCELERATED PRODUCTION OF THYMIC CELLS FROM PLURIPOTENT STEM CELLS” (The Regents of the University of Colorado, a body Corporate, priority 2022, published 2025):

Tests used:
iPSCs = test: Influence of TGF-β signaling on TEP induction from iPSCs, flow cytometry and qPCR on day 14 (Example 2); assay type: cell-based; conditions: TGF-β signaling modulation during AFE stage (days 5-6) and VPE stage (days 7-8); flow cytometry and qPCR day 14
Protocol: In another exemplary method, the influence of TGF-β signaling during generation of TEPs in two different stages was assessed. FIG. 4A is a schematic illustrating the timelines and culture conditions for the nine protocols performed in the present exemplary method. FIG. 2 provides a chart of agents, modulators, additives, and base mediums used in this and other exemplary methods herein.
For all nine exemplary experimental conditions, on Day 1, iPSCs were plated for differentiation in mTeSR+ supplemented with ROCKi according to the method disclosed above. […]
The 9 protocols testing the effect of TGF-β inhibition (Ly), omission, or activation (T) on TEP induction were tested and analyzed by flow cytometry and qPCR on day 14. FIG. 4B illustrates flow plot quantification of CD205^+EPCAM^+ cells from each differentiation protocol and FIGS. 4C-4E illustrate a qPCR analysis of HOXA3, KRT8, and FOXN1 gene expression in the cells from each differentiation protocol.
During the AFE stage (days 5-6) the influence of: 1) inhibition of TGF-β signaling (Ly—conditions […], 2, and 3); 2) no modulation of TGF-β signaling (conditions 4, 5, and 6); and 3) activation of TGF-β signaling (T—conditions 7, 8, and 9) was assessed. […]

iPSC-derived TEP = test: RANKL, CD40L and NOTCH agonists added in stage 4 or 5 of differentiation, flow cytometry and qPCR (Example 5); assay type: cell-based
Excerpt: FIG. 7 illustrates an exemplary experimental set-up in accordance with certain embodiments of the present disclosure. This experimental set-up for production of add RANKL, CD40L, and NOTCH agonists in different combinations in stage 4 or 5 of differentiation of the progenitor cells.
FIGS. 8A-8B illustrate additional stimulants used to enhance thymic cell production having improved marker representation, 8A and […] illustrate percent representative marker outcome under the varying conditions in accordance with certain embodiments of the present disclosure.
FIGS. 9A-9B illustrate exemplary results from qPCR detection of representative markers FOXN1 and MHC-II (e.g., HLA-DR) protein expression corroborated by gene expression under control and experimental conditions in accordance with certain embodiments of the present disclosure.

T: TGF-β activation (T), 1 ng/mL TGF-β
expression of TEP/TEC markers CD205 and EPCAM, VPE marker HOXA3, TEP markers KRT8 and FOXN1 (iPSCs): no influence

B1: CD40L: CD40 pathway activator, ETP-derived signal (protein, UniProt P29965 113-261, looked up)
CD40 ligand, soluble form: MQKGDQNPQIAAHVISEASSKTTSVLQWAEKGYYTMSNNLVTLENGKQLTVKRQGLYYIYAQVTFCSNREASSQAPFIASLCLKSPGRFERILLRAANTHSSAKPCGQQSIHLGGVFELQPGASVFVNVTDPSQVSHGTGFTSFGLLKL
production of FOXN1+EPCAM+ cells (iPSC-derived TEP): did not enhance production

B2: RANKL: RANK pathway activator, ETP-derived signal (protein, UniProt O14788 140-317, looked up)
Tumor necrosis factor ligand …: IRAEKAMVDGSWLDLAKRSKLEAQPFAHLTINATDIPSGSHKVSLSSWYHDRGWAKISNMTFSNGKLIVNQDGFYYLYANICFRHHETSGDLATEYLQLMVYVTKTSIKIPSSHTLMKGGSTKYWSGNSEFHFYSINVGGFFKLRSGEEISIEVSNPSLLDPDQDATYFGAFKVRDID
production of FOXN1+EPCAM+ cells (iPSC-derived TEP): did not enhance production
